# What was measured:
# [1] = tested on: alpha2-TALEN-L (Platinum TALEN, TRAC exon 1); test: cell_activity; settings: half-site not delineated
# [2] = tested on: alpha2-TALEN-R (Platinum TALEN, TRAC exon 1); test: cell_activity; settings: half-site not delineated
# [3] = 1G4 knock-in efficiency in beta-null Jurkat with alpha2-TALEN pair and conventional PITCh vector
# [4] = 1G4 knock-in efficiency in beta-null Jurkat with alpha2-TALEN pair and modified PITCh vector
sequence,measurement,setting,value
GTCTGCCTATTCACCGATTGAAGATTTTGATTCAATGTGTCACAAAGTAAGGATTC (double strand),activity,[1]; [3],3.1%
same,activity,[2]; [3],3.1%
GTCTGCCTATTCACCGATTGAAGATTTTGATTCAATGTGTCACAAAGTAAGGA (double strand),activity,[1]; [4],3.5%
same,activity,[2]; [4],3.5%

# From patent US20230250415
